{"source": "patent US20220031820", "test_system": "T1, recombinant syndecan-1", "T1 sequence (P18827 whole entry, species assumed, looked up)": "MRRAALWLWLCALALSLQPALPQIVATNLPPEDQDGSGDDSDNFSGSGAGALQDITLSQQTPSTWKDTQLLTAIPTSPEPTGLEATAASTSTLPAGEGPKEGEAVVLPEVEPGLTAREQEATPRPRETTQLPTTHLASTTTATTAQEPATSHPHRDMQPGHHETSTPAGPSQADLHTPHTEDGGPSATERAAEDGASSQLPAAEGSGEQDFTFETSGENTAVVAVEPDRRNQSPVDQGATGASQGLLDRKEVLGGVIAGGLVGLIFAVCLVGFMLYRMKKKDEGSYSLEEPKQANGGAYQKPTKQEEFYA"}
{"substance": "recombinant GzmB", "values": [{"measurement": "in vitro syndecan-1 cleavage assay (coomassie gel); GzmB 500 nM, syndecan-1 0.7 ug", "value": "syndecan-1 was cleaved by all three granzymes"}]}
